Results published in publication PMC11537708.

Experiments:
[1] = target: human full-length CD45 extracellular domain (ECD) isoform RABC (human) (UniProt P08575); test: SPR; GE Biacore T100; about 200 RU of human CD45 ECD, E3/49K immobilised on an SA-chip, reference channel with an unrelated protein; HBS-P+; twofold serial dilutions, 30 s association, 30 ul/min, 25 °C
[2] = target: human full-length CD45 extracellular domain (ECD) isoform RABC (human) (UniProt P08575); test: cryo-EM structure; fully glycosylated human CD45 ECD bound to E3/49K, purified by size exclusion chromatography; 0.01% FOM; 3.8-Å nominal resolution map

Sequence of UniProt P08575 (P08575 26-577): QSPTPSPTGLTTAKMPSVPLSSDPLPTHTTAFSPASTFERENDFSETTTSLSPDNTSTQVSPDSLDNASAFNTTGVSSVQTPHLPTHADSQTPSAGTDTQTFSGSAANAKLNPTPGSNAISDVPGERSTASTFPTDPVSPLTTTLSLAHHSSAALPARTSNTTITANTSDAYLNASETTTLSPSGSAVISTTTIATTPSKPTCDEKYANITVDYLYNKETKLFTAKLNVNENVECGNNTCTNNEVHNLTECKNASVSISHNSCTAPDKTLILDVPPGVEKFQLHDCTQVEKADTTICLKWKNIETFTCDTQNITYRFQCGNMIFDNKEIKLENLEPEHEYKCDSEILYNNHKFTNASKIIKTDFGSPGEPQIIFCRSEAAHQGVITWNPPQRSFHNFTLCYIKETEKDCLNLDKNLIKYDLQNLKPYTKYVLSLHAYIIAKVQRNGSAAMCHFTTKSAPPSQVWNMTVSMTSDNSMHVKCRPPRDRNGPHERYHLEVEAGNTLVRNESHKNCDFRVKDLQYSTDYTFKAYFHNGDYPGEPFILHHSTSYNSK

Substance | Kd [1] [nM] | koff [1] [s⁻¹] | kon [1] [M⁻¹ s⁻¹] | stoichiometry N (CD45 per E3/49K) [2]
E3/49K R1 domain (domain or fragment) | 74 | – | – | –
E3/49K R2 domain (domain or fragment) | 145 | – | – | –
adenoviral D19a strain E3/49K ECD (domain or fragment) | 0.3 | 0.000598 | 2.08e+06 | 2
